Source: US20200407723, “APTAMER BASED AFFINITY CAPTURE METHODS FOR THE SELECTIVE ENRICHMENT OF HUMAN IMMUNOGLOBULIN FC DOMAINS” (Waters Technologies Corporation, published 2020)

What was measured:
[1] = target: NISTmAb humanized IgG1 (Fc domain) (UniProt P01857-1 P01857-1:99-330); experiment: pulldown; from rat plasma, 12.5 ug aptamer, about 85% of 100 ug recovered, purity 10.6% to 72.4%; bound mAb to plasma protein ratio near 7:3; retained in 5 mM CaCl2 Tris; details: chain copies: 2; label: 5'-biotin
Description: 280 nm, Em. 370 nm) and re-calculated according to the chromatographic purity assessment. […] After purification, about 85% of the spiked NIST mAb was recovered with purity increasing from 10.6% to 72.4%.
The small portion of impurity in the purified NIST mAb eluate was determined to be the non-specific binding of rat plasma endogenous proteins to the aptamer. The competition in binding between NIST mAb and plasma protein was investigated by loading 20 μL of rat plasma containing 50 μg of NIST mAb onto an increasing amount of immobilized aptamer (5 μg, 12.5 μg, 25 μg). The result of this experiment is summarized in FIG. 8D-E. From which, it is possible to observe that the binding ratio of NIST mAb to plasma protein is close to 7:3 (from UV measurement) for the current experimental approach.
To test out this optional protocol step, 20 μL of plasma and 25 μg of NIST mAb were diluted with binding buffer to 200 μL then loaded onto 40 μL of streptavidin resin wherein 5 μg of aptamer was non-covalently immobilized. […] Herein, the second washing and elution fractions were collected and analyzed by LC-UV analysis. […]

bovine serum albumin = bovine serum albumin (Bos taurus, UniProt P02769 P02769:25-607); experiment: pulldown; negative control; negligible non-specific binding in Tris with Mg2+; high non-specific binding with Zn2+, especially without NaCl; details: tags: Sigma-Aldrich; label: 5'-biotin
Description: A positive pressure manifold (commercially available from Waters Technologies Corporation, Milford, Mass.) was utilized to drive flow through the filter plate. The amount of aptamer immobilized was determined by abosorbance at 260 nm using a DS-11 spectrophotometer (commercially available from DeNovix Inc., Wilmington, Del.). This non-covalently immobilized aptamer affinity resin was used to perform the affinity capture of 100 μg human IgG (IgG from human serum, commercially available from Sigma-Aldrich (now MilliporeSigma), St. Louis, Mo.) contained within 200 μL of several different binding buffers (specified below). After 1 hour of mixing, the resin was washed with two repeated 200 μL volumes to remove any unbound protein. Combined hIgG flow-through and washing fractions were saved to determine the amount of hIgG breakthrough. […] The eluate was saved for hIgG recovery measurements using a fluorescence plate reader (Ex. 280 nm, Em. 370 nm; Gemini™ XPS plate reader, commercially available from Molecular Devices, San Jose, Calif.).
The presence of divalent cations in the binding buffer has the potential to facilitate the activation of the aptamer affinity motif, yet it could also instigate non-specific binding. […] After binding and washing steps, captured proteins were eluted with elution buffer and protein recovery in each eluate was measured using a fluorescence plate reader.

bovine serum albumin, sequence (P02769 25-607, one chain of several): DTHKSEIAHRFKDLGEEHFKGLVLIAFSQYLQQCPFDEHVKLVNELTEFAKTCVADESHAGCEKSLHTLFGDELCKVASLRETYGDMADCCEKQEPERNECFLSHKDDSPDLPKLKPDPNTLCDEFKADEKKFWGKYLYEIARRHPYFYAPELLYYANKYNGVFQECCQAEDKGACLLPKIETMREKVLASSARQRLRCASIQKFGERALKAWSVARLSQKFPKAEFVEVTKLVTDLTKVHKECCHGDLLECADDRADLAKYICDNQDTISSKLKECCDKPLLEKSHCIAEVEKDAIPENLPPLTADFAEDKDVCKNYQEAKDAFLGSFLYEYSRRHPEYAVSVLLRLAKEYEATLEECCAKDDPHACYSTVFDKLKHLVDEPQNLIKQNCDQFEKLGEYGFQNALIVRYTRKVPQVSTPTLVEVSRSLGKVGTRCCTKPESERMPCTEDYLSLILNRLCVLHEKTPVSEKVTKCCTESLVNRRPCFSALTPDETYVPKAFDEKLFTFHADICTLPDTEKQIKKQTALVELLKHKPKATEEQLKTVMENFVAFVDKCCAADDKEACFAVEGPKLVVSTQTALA

B1: anti-human Fc 23-nt aptamer SEQ ID NO 1 (mixed)
RNA: GGAGGUGCUCCGAAAGGAACUCC
modifications: 2'-F U at 6, 9, 21; 2'-F C at 20; ribonucleotides at A3, G4, G5, G7, G16, G17; all other positions deoxyribonucleotides
B1: binds [1]; no binding (bovine serum albumin).
